Patent US20110124010A1

Experiments:
[1] = target: Myelin basic protein (MBP) (human) (UniProt P02686); assay: flow cytometry, intracellular staining of CD14+ macrophages from CSF; isotype control background
[2] = target: Myelin basic protein (MBP) (human) (UniProt P02686); assay: flow cytometry, intracellular staining of CD14+ macrophages from peripheral blood; isotype control background

Chain of UniProt P02686 (P02686 whole entry): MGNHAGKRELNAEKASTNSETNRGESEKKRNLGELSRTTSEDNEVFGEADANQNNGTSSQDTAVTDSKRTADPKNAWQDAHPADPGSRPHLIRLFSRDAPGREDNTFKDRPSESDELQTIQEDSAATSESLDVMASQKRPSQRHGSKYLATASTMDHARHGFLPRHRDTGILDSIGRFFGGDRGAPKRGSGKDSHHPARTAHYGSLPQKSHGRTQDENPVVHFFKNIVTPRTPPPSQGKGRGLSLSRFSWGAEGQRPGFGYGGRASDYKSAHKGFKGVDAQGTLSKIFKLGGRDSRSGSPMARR

Geometric Mean FI [1]: 292
Mean FI [1]: 328
Geometric Mean FI [2]: 766
Mean FI [2]: 783
Substance: Non-specific isotype specific antibody (Rabbit IgG) from Epitomics
